pKd: −log10 of the molar value.

Among the targets are HLA-B*07:02; HLA-B*35:01; HLA-B*35:03; HLA-B*42:01; HLA-B*51:01; HLA-B*53:01; HLA-B*54:01.
Holding throughout (experiment): IEDB peptide-MHC binding, purified MHC/competitive/radioactivity; filed as Kd, often an IC50 or EC50 that approximates it; ≥ and ≤ were set here for values at or beyond the usual limits of such assays
Holding throughout (settings): source organism: Toxoplasma gondii

As for HPGSVNEFDF, the pKd with HLA-B*07:02 is 5.44; with HLA-B*35:01, 5.68; in the experiment with HLA-B*35:03, 4.94; with HLA-B*42:01, 6.06; in the experiment with HLA-B*51:01, 4.83; with HLA-B*53:01 it was 5.26. Moreover, in the experiment with HLA-B*54:01, the negative logarithm of the Kd (pKd) was 6.07.

The values above are taken from the Immune Epitope Database (IEDB).
